Measured values as given in patent US20040132642A1, “Methods of inhibiting metastasis or growth of a tumor cell” (Government of the U.S.A., represented by the Secretary, …, priority 2002, published 2004).

Test system: CXCR4-B16 cells
Assay: adhesion of CXCR4-B16 cells to resting DMEC in parallel plate flow chamber
Format: cell-based, murine
Settings: exogenously added chemokine
Description: Prior to interaction with tumor cells, resting confluent DMEC or LMEC were exposed to 100 ng/ml of recombinant CXCL12 or CCL21 for 15 min at 20° C. as described (Cinamon et al., Nat. Immunol. 2: 515-22 (2001)). After unbound chemokine was washed away, calcein-AM-labeled (Molecular Probes, Eugene, Oreg.) CXCR4- or pLNCX2-B16 cells (2.5×10^5/ml in B16 medium) were injected at 1.5 dynes/cm^2 into a parallel plate flow chamber (Glycotech, Gaithersburg, Md.) containing confluent DMEC or LMEC. In some cases, tumor cells were treated with pertussis toxin (PTX, Calbiochem, San Diego, Calif.) at 100 ng/ml for 2 hours at 37° C. to block Gi-protein-coupled signaling. After two min, flow was stopped, which enabled B16 cells to interact with MEC in the absence of shear stress. After 5 min, shear was re-established at 1.5 dynes/cm^2 for up to 2 min in order to detach unbound cells; adherent cells were digitally photographed in 5-6 random fields (each field=1.18 mm^2) with excitation at 488 nm and emission at 513 nm using sufficient exposure time (˜1 s) to allow distinction between non-moving and moving cells (which appeared as dim streaks) (Fitzhugh et al. (2000), supra). Cells were then counted with the software program IPlab (Scanalytics, Fairfax, Va.). […]

B1: CCL21: recombinant chemokine used as control on DMEC (protein, UniProt O00585 24-134, looked up)
C-C motif chemokine 21: SDGGAQDCCLKYSQRKIPAKVVRSYRKQEPSLGCSIPAILFLPRKRSQAELCADPKELWVQQLMQHLDKTPSPQKPAQGCRKDRGASKTGKKGKGSKGCKRTERSQTPKGP
Question: With B1 as the molecule, how does the “stimulation of adhesion of CXCR4-B16 cells to DMEC” value read?
Answer: no effect
